The target in data set [1] is C.Csp231I controller protein (Citrobacter sp. RFL231). Briefly: crystal structure; C.Csp231I in complex with 21 bp OL or OR operator DNA duplexes; three crystal forms (P6(1) OL 2.30 Å, C2 OL 2.75 Å, P6(1) OR 1.80 Å); subunits within one protein dimer.
Data set [2] addresses T1, C.Csp231I (Citrobacter sp. RFL231, UniProt Q32WH4 1-98).
T1 sequence: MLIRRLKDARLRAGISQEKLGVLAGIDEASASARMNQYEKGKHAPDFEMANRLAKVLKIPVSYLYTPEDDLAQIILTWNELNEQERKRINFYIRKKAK
Briefly: crystal structure; C2 form, 2.75 A, two complexes per asymmetric unit; EMSA: 10 mM Tris-HCl pH 8.0, 0.1 M NaCl, 1 mM EDTA, room temperature 30 min, 2 uM DNA, 6.5% native PAGE in 0.25x TBE; AUC: same buffer, 20 C. To be noted: protein: recombinant; chain copies: 2. On the technique in general: Mobility shift assays separate free from complexed probe on a gel.

In data set [3] the target is T1, C.Csp231I. Briefly: EMSA; single dimer at the OL site; 2 uM DNA; EMSA: 10 mM Tris-HCl pH 8.0, 0.1 M NaCl, 1 mM EDTA, room temperature 30 min, 2 uM DNA, 6.5% native PAGE in 0.25x TBE; AUC: same buffer, 20 C. Particulars: protein: recombinant; chain copies: 2.
The target of data set [4] is T2, C.Csp231I (two dimers) (Citrobacter sp. RFL231, UniProt Q32WH4 1-98).
T2 sequence: T1 sequence
Briefly: EMSA; little effect of spacer mutation; 2 uM DNA; EMSA: 10 mM Tris-HCl pH 8.0, 0.1 M NaCl, 1 mM EDTA, room temperature 30 min, 2 uM DNA, 6.5% native PAGE in 0.25x TBE; AUC: same buffer, 20 C. Particulars: protein: recombinant; chain copies: 4.

Data set [5] has as its target T1, C.Csp231I. Briefly: EMSA; one dimer binds; 2 uM DNA; EMSA: 10 mM Tris-HCl pH 8.0, 0.1 M NaCl, 1 mM EDTA, room temperature 30 min, 2 uM DNA, 6.5% native PAGE in 0.25x TBE; AUC: same buffer, 20 C. Particulars: protein: recombinant; chain copies: 2.
The target of data set [6] is T1, C.Csp231I. Briefly: EMSA; single complex up to 2:1 subunits per duplex; 2 uM DNA; EMSA: 10 mM Tris-HCl pH 8.0, 0.1 M NaCl, 1 mM EDTA, room temperature 30 min, 2 uM DNA, 6.5% native PAGE in 0.25x TBE; AUC: same buffer, 20 C. To be noted: protein: recombinant; chain copies: 2.
The target in data set [7] is T2, C.Csp231I (two dimers). Briefly: EMSA; larger complex at 4:1 and above; 2 uM DNA; EMSA: 10 mM Tris-HCl pH 8.0, 0.1 M NaCl, 1 mM EDTA, room temperature 30 min, 2 uM DNA, 6.5% native PAGE in 0.25x TBE; AUC: same buffer, 20 C. To be noted: protein: recombinant; chain copies: 4.

The record followed here is paper PMC4321490, “Structural analysis of DNA binding by C.Csp231I, a member of a novel class of R-M controller proteins regulating gene expression”.

As usually defined, the stoichiometry N is the number of molecules, sites or subunits per partner or assembly. “C.Csp231I controller protein (natural protein)”: the stoichiometry N in data set [1] came to 2.

B1: OL 21-mer (dsDNA)
DNA 1: ACACTAAGGAAAACTTAGTAA
DNA 2: TTACTAAGTTTTCCTTAGTGT
With B1, the binding result in the data set with C.Csp231I [2] is recorded as “binds”.

B2: 54-2 (OR randomized) (dsDNA)
DNA 1: ACACTAAGGAAAACTTAGTAAAATTGCTTTTTTAAATAAGACTCGTTAAAAAAC
DNA 2: GTTTTTTAACGAGTCTTATTTAAAAAAGCAATTTTACTAAGTTTTCCTTAGTGT
On to B2, for which the binding result in the data set with C.Csp231I [3] is “binds”.

B3: 54-3 (spacer randomized) (dsDNA)
DNA 1: ACACTAAGGAAAACTTAGTAACTGCATGCTACCAAACTAAGAAAATCTTAGCAA
DNA 2: TTGCTAAGATTTTCTTAGTTTGGTAGCATGCAGTTACTAAGTTTTCCTTAGTGT
Turning to B3, in the data set with C.Csp231I (two dimers) [4], the binding result is recorded as “binds”.

B4: 48-1 (6 bp spacer deletion) (dsDNA)
DNA 1: ACACTAAGGAAAACTTAGTAAAATTTTAAACTAAGAAAATCTTAGCAA
DNA 2: TTGCTAAGATTTTCTTAGTTTAAAATTTTACTAAGTTTTCCTTAGTGT
As for B4, the binding result in the data set with C.Csp231I [5] is listed as “binds”.

B5: 54-1 (native OL+OR) (dsDNA)
DNA 1: ACACTAAGGAAAACTTAGTAAAATTGCTTTTTTAAACTAAGAAAATCTTAGCAA
DNA 2: TTGCTAAGATTTTCTTAGTTTAAAAAAGCAATTTTACTAAGTTTTCCTTAGTGT
On to B5, for which the binding result with C.Csp231I [6] and in the data set with C.Csp231I (two dimers) [7] was “binds” in each case.
